B1: Azoarcus group I ribozyme (parent)
chain: GUGCCUUGCGCCGGGAAACCACGCAAGGGAUGGUGUCAAAUUCGGCGAAACCUAAGCGCCCGCCCGGGCGUAUGGCAACGCCGAGCCAAGCUUCGGCGCCUGCGCCGAUGAAGGUGUAGAGACUAGACGGCACCCACCUAAGGCAAACGCUAUGGUGAAGGCAUAGUCCAGGGAGUGGCGAAAGUCACACAAACCGG

Variants of: B1
Assay: reverse-splicing fitness (ratio to wild type); higher = more active; in vitro selection; Mg2+ level not given
Method in brief: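 An in vitro group I ribozyme library with randomized positions was T7-transcribed and gel-purified. In triplicate, 10 pmol RNA in EPPS pH 7.5 was reacted with 50 pmoles of a 30-nt RNA substrate for 1 h at 37 °C across several added MgCl2 levels (1–48 mM), then stopped with EDTA. Products were reverse transcribed from a substrate-complementary primer, PCR-amplified and sequenced (HiSeq 4000). Fitness is a variant's read proportion after selection over that before, normalised to wild type.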

| Variant | reverse-splicing fitness |
| --- | --- |
| GUGCCUUGCGCCGGGAAACCACGCAAGGGAUGGUGUCAAAUUCGGCGAAACCUAAGCGCCCGCCCGGGCGUAUGGCAACGCGGAGCCAAGCUUCGGCGCCUGCGCCGAUGCAGGUGUAGCGACUAGACGGCACCCACCUAAGGCUAACGUUAUGGUGAAGGCAUAGUCAAGGGAGCGGCGAAAGUCACACAAACCGG [C82G A111C A120C A145U C150U C169A U176C] | 0.0124 |
| GUGCCUUGCGCCGGGAAACCACGCAAGGGAUGGUGUCAAAUUCGGCGAAACCUAAGCGCCCGCCCGGGCGUAUGGCAACGCGGAGCCAAGCUUCGGCGCCUGCGCCGAUGCAGGUGUAGCGACUAGACGGCACCCACCUAAGGCUAACGUUAUGGUGAAGGCAUAGUCAAGGGAGGGGCGAAAGUCACACAAACCGG [C82G A111C A120C A145U C150U C169A U176G] | 0.00748 |
| GUGCCUUGCGCCGGGAAACCACGCAAGGGAUGGUGUCAAAUUCGGCGAAACCUAAGCGCCCGCCCGGGCGUAUGGCAACGCGGAGCCAAGCUUCGGCGCCUGCGCCGAUGCAGGUGUAGCGACUAGACGGCACCCACCUAAGGCUAACGUUAUGGUGAAGGCAUAGUCAAGGGAGAGGCGAAAGUCACACAAACCGG [C82G A111C A120C A145U C150U C169A U176A] | 0.0138 |
| GUGCCUUGCGCCGGGAAACCACGCAAGGGAUGGUGUCAAAUUCGGCGAAACCUAAGCGCCCGCCCGGGCGUAUGGCAACGCGGAGCCAAGCUUCGGCGCCUGCGCCGAUGCAGGUGUAGCGACUAGACGGCACCCACCUAAGGCUAACGCUAUGGUGAAGGCAUAGUCUAGGGAGAGGCGAAAGUCACACAAACCGG [C82G A111C A120C A145U C169U U176A] | 0.0126 |
| GUGCCUUGCGCCGGGAAACCACGCAAGGGAUGGUGUCAAAUUCGGCGAAACCUAAGCGCCCGCCCGGGCGUAUGGCAACGCGGAGCCAAGCUUCGGCGCCUGCGCCGAUGCAGGUGUAGCGACUAGACGGCACCCACCUAAGGCUAACGCUAUGGUGAAGGCAUAGUCUAGGGAGGGGCGAAAGUCACACAAACCGG [C82G A111C A120C A145U C169U U176G] | 0.00641 |
| GUGCCUUGCGCCGGGAAACCACGCAAGGGAUGGUGUCAAAUUCGGCGAAACCUAAGCGCCCGCCCGGGCGUAUGGCAACGCGGAGCCAAGCUUCGGCGCCUGCGCCGAUGCAGGUGUAGCGACUAGACGGCACCCACCUAAGGCUAACGCUAUGGUGAAGGCAUAGUCUAGGGAGCGGCGAAAGUCACACAAACCGG [C82G A111C A120C A145U C169U U176C] | 0.0123 |
| GUGCCUUGCGCCGGGAAACCACGCAAGGGAUGGUGUCAAAUUCGGCGAAACCUAAGCGCCCGCCCGGGCGUAUGGCAACGCGGAGCCAAGCUUCGGCGCCUGCGCCGAUGCAGGUGUAGCGACUAGACGGCACCCACCUAAGGCUAACGUUAUGGUGAAGGCAUAGUCUAGGGAGCGGCGAAAGUCACACAAACCGG [C82G A111C A120C A145U C150U C169U U176C] | 0.0153 |
| GUGCCUUGCGCCGGGAAACCACGCAAGGGAUGGUGUCAAAUUCGGCGAAACCUAAGCGCCCGCCCGGGCGUAUGGCAACGCGGAGCCAAGCUUCGGCGCCUGCGCCGAUGCAGGUGUAGCGACUAGACGGCACCCACCUAAGGCUAACGUUAUGGUGAAGGCAUAGUCUAGGGAGAGGCGAAAGUCACACAAACCGG [C82G A111C A120C A145U C150U C169U U176A] | 0.015 |
| GUGCCUUGCGCCGGGAAACCACGCAAGGGAUGGUGUCAAAUUCGGCGAAACCUAAGCGCCCGCCCGGGCGUAUGGCAACGCGGAGCCAAGCUUCGGCGCCUGCGCCGAUGCAGGUGUAGCGACUAGACGGCACCCACCUAAGGCUAACGUUAUGGUGAAGGCAUAGUCUAGGGAGGGGCGAAAGUCACACAAACCGG [C82G A111C A120C A145U C150U C169U U176G] | 0.00674 |
| GUGCCUUGCGCCGGGAAACCACGCAAGGGAUGGUGUCAAAUUCGGCGAAACCUAAGCGCCCGCCCGGGCGUAUGGCAACGCGGAGCCAAGCUUCGGCGCCUGCGCCGAUGCAGGUGUAGCGACUAGACGGCACCCACCUAAGGCUAACGCUAUGGUGAAGGCAUAGUCAAGGGAGAGGCGAAAGUCACACAAACCGG [C82G A111C A120C A145U C169A U176A] | 0.0143 |
| GUGCCUUGCGCCGGGAAACCACGCAAGGGAUGGUGUCAAAUUCGGCGAAACCUAAGCGCCCGCCCGGGCGUAUGGCAACGCGGAGCCAAGCUUCGGCGCCUGCGCCGAUGCAGGUGUAGCGACUAGACGGCACCCACCUAAGGCUAACGCUAUGGUGAAGGCAUAGUCAAGGGAGCGGCGAAAGUCACACAAACCGG [C82G A111C A120C A145U C169A U176C] | 0.0142 |
| GUGCCUUGCGCCGGGAAACCACGCAAGGGAUGGUGUCAAAUUCGGCGAAACCUAAGCGCCCGCCCGGGCGUAUGGCAACGCGGAGCCAAGCUUCGGCGCCUGCGCCGAUGCAGGUGUAGCGACUAGACGGCACCCACCUAAGGCUAACGCUAUGGUGAAGGCAUAGUCAAGGGAGGGGCGAAAGUCACACAAACCGG [C82G A111C A120C A145U C169A U176G] | 0.0056 |
| GUGCCUUGCGCCGGGAAACCACGCAAGGGAUGGUGUCAAAUUCGGCGAAACCUAAGCGCCCGCCCGGGCGUAUGGCAACGCGGAGCCAAGCUUCGGCGCCUGCGCCGAUGCAGGUGUAGCGACUAGACGGCACCCACCUAAGGCUAACGUUAUGGUGAAGGCAUAGUCGAGGGAGCGGCGAAAGUCACACAAACCGG [C82G A111C A120C A145U C150U C169G U176C] | 0.0162 |
| GUGCCUUGCGCCGGGAAACCACGCAAGGGAUGGUGUCAAAUUCGGCGAAACCUAAGCGCCCGCCCGGGCGUAUGGCAACGCGGAGCCAAGCUUCGGCGCCUGCGCCGAUGCAGGUGUAGCGACUAGACGGCACCCACCUAAGGCUAACGUUAUGGUGAAGGCAUAGUCGAGGGAGAGGCGAAAGUCACACAAACCGG [C82G A111C A120C A145U C150U C169G U176A] | 0.0133 |
| GUGCCUUGCGCCGGGAAACCACGCAAGGGAUGGUGUCAAAUUCGGCGAAACCUAAGCGCCCGCCCGGGCGUAUGGCAACGCGGAGCCAAGCUUCGGCGCCUGCGCCGAUGCAGGUGUAGCGACUAGACGGCACCCACCUAAGGCUAACGUUAUGGUGAAGGCAUAGUCGAGGGAGGGGCGAAAGUCACACAAACCGG [C82G A111C A120C A145U C150U C169G U176G] | 0.0072 |

— the RNAGym collection of RNA variant scans (doi:10.1093/molbev/msab373)
